Assay: soluble on expression in E. coli; label from the status in PepcDB or PDB records

With “MAHHHHHHMEPHMTSLVLRRDLSLEVPKLLIGAVQPYQTLAGPALTTSFLHQPDLLPFQRTAFSHAAVAPLYFHTLLHTLAEFAETPRAVQYSAVKLRHAPKADFWDSVGTLNCFYYSAHAPYGAPVEASVLDQHPAMGAVELVRPGHRMESDVKLTLFNDSHQPIASMLMTGPNGAPRETDDDAVESSQGTSSTSPHARTAFPYVAPPTKETTSASDCLSAVMIGGTRVYGGLYGDLMPMESGGGFGQRACYRVEDAAAYSPSLDARSRVSGTEAAAGERTASSSASTVMPPWVLYDCVQRFFLRLHRSGIFGGDAAVAPTEGWRVSAHHVVQTEDAVFGVPVEVVCAVPRVYPSYRLPPWRHRLGLPAIPNGAPPCVCLRCETRQGGRLVSTGVYFFNRW” as the sequence, how does the “soluble on expression in E. coli” value read?
The value was “soluble”.

For “MTSDTIRQTLDELLLDKNGGSSNEARAFFLSQIIDQLKLISSQTDAERQLQKLQLKDPNDNIVKATPPPPPPPPPLISILQQAPPPPPPPPPPTLKAPPPPPILGLKTPSKSLKTPTPRPKECPTSFLPKKEKKTKTRTVQWSKINASVVQDDSVWGKLAKASNVDIDFDLLDNFFGIESLAVSGAAEVVKVGILRALGKNYKKISKKIFNPKKHFFFLLKISNSLNFQKSTRKDAHVELLTAKRSQNVAIMLKQFKNIDELIDDVSQNKPVAEIDALQNLFGMLPQSEEEEALRRYTGDISLLSPPSSFFYRLVQIQFYRLRIETQIFLSDFSRLMRELAPNVEILIRTSQEILTSPTLPRLLLIFVNMGNYLNGNNSQGNAFGFTLNSLWKLIDLKGNKQEFSLLHLLVTCEPDLVAHLQEELSTLKDASQISFDEIKISLKTLRDGRCKLEKQLETCSGASFTQFLELIKIDCKFELDEFGANYDKLTELQYQLADYFCENRNTFQLDECLKIFNFLMNRLQQTLKEHVTRETRKLKKEEKKETQTTRECEKTMKKPEKIDLFDALTASNGGPESPRKRAAGILDMRQKLGNVRIRKLRDVTTLESSFTPPPPPPLESPTDSTSSKENESVKPAKTSTNYEMCNDLESYITSLTRKRASHLPKAPPKEEPKLPEVLPEKSKIALKIEKIPEKIDKPPLPQAAPIIPKLPQKSIKAPSTVTTRSKVPPPTAAAAVRIVSVTTTTTPTKTAELRKPGARSPKTTVATVPKVTVVPVSRVPVAPSTPLSRRMSAPVVRKPTMTAEKKREITMKPSVSTSARPSLINTSSHPMVRSPLPKMSVLEKPKPLRITRPTVIPQSPTVTSSARPSGLRQPAKPKWV”, which “soluble on expression in E. coli” value is on record?
Its value is “not soluble”.

Which “soluble on expression in E. coli” value does the source give for “MGSDKIHHHHHHDYKLVIFASFNGKAYSDNPRYLFEYLRDHEEFASYHFVWAFKVKRSVNRAKVVKFNSFSYYYLLSKAKYWVFNSKMAPYYHKKGEQVYLQTWHGTPLKRLGHDILDNGITYYRSRLSYQQMLRSYDEDSRHWDYLISPNPFSSQAFTSAFNLDRGKLLEVGYPRVDFLVNADSNKCMELKRRYGLPLDKKVVLYAPTWRDDSFGIRGYRFELAVDFYKWKNQLGDDTVILFKPHYLISNVYQIPNDLSNFVYLMAASADINDAYLMSDVLITDYSSVFFDYANLNRPIYFYMYDFEQYEQELRGFYLNVPDELPNDVIRTEKELLRRIKEDIFDYDRLQVFNQVFNSWNDGKVSSKVAKRIFYEN” here?
Its value is “not soluble”.

With “MSLDKVERRLYELYEKAINYEPLSKEEALYILEVDDIYVPFLVHLAQKIKKHYFPENEVEFCSIINAKSGACSEDCKFCAQSKYYKTPINVYNLVPVDEMVEGAIRGVEFGANRYCIVLSGKSATKEEVERITEAVKEIKNEGLPINVCVSAGTLDEESLKKLKEAGVKRINHNLETSRNFFKNIVTTHTWEDRYETIKRIKKVGLSTCSGGIFGMGESNEDRVDMALTYRELEVDSIPLNFLMPIEGTPMENAPGVEVMEALKIIAMFRFTNPKAELRLCGGREQNLRDFHGMATLMTNAMMVGGYLTRAGRDIKKDYQLLKDLKAKRKVSVEEGHHHHHH” as the sequence, how does the “soluble on expression in E. coli” value read?
Its value is “soluble”.

Which “soluble on expression in E. coli” value does the source give for “MIAPRLVSIIIPTLNEEDAIAPTLRQARRQEGPVEILVADGGSTDDTRSVAQARGATVLQAPRGRAPQMNHGADCSSGDILLFLHADTRLPPNGLSRIRRALAAPDAIAGTFRLRFDDPTPLLRFYAWCTRWPWIRLCFGDRGQFVERSAFEAVGGFPDWPLFEDLELAARLQGHGRFRFLDAAVTTSARRFRRHGPLRQQLLNLYLWGHYLWGTDPDLLASLYPDRLGPVDQQPRSLEHHHHHH” here?
Its value is “soluble”.

Which “soluble on expression in E. coli” value does the source give for “MGSDKIHHHHHHMLQGKVSVIVPAYNAARLLERCVRSITGQTYPALEVIVVDDGSKDDTGKIADQLAAEDSRIRVVHKTNGGVSAARNDALKLVEGEWITFVDSDDYLEPDFLRSLLDGEVADLVIGGYHTVGANEIPSANYPTDTAHSPEAIKRALEARLTDMTFLCPWGKLFRTSLVRSLRLIFNTEMKVGEDVVFVWSYLAHCSSLAFKQGQGYDYYTEPGADFKYALDETVSLQTIERILGVLDGLKRNFGMDTEHARCHVLNYYIWLFKLYVNRNYLLRDLARMKNFFYYPLILDYYKTYRRTSKDKLLVYLLLKLRLSGVLYLMIKLYY” here?
Its value is “not soluble”.

For “MSLADKRIGILVYDGVLTSDVTAPLEVFGVASRLTWFSDYEVLTISVSDQKTITTEEGLEIGVDAWIGDQPELDVLVLTSSYDMDALIENKDLIHFIQTTSKAADWMASNCSGAYLLAEAGLLNGKKATTWAGGENGLQKDYPAVDVQFNQNFVVDDGVITSNGSLVSYQAALKLLHLMTSESKAQEVADALQYSRFSTEGHHHHHH”, which “soluble on expression in E. coli” value is on record?
Its value is “soluble”.

For “MRRVMIPKPGGGERPLGIPTIRDRVVQAAAKIVLEPIFEADFEDGAYGYRPRRNAVDAVKEVHRLMCRGYTDVVDADLSKYFDTIPHSDLLKSVARRIVDRNVLRLIKLWLRVPVEERDSNGKRRMSGGKSNKCGTPQGGVMVPLEHHHHHH”, which “soluble on expression in E. coli” value is on record?
The value was “not soluble”.

For “MEEEVSRKTVAISVQAAKLTGRVLFMACQKFLAGVQKHNRDALTPHGRQTVKQLMGHTGQSNSIQLKGDARLFDRVARKFNVDYAFHKVGPKDYLLFFKAGQADAITAAFSEYTKRVMARQNDKPSIRRGLRQAMGRVKPRQKEREKTREAVQER”, which “soluble on expression in E. coli” value is on record?
Its value is “not soluble”.

For “SVELSAGQSIIADAAGALGPVNRDDAPAATWREGRVSFSGTPLMQALAEFERYGDTGLVIRDPAVAALKVNGSFDLRQIGAFARALPRVLPVQLSTRDGQTEII”, which “soluble on expression in E. coli” value is on record?
The value was “not soluble”.

With “MIKVEIKPSQAQFTTRSGVSRQGKPYSLNEQLCYIDLGNEYPVLVKVTLDEGQPAYAPGLYTVHLSSFKVGQFGSLMIDRLRLVPAK” as the sequence, how does the “soluble on expression in E. coli” value read?
The value was “soluble”.

For “ASWSHPQFEKGAMALTEAWLIEKANRKLNAGGMYKITSDKTRNVIKKMAKEGIYLCVAQGYRSTAEQNALYAQGRTKPGAIVTNAKGGQSNHNYGVAVDLCLYTNDGKDVIWESTTSRWKKVVAAMKAEGFKWGGDWKSFKDYPHFELCDAVSGEKIPAATQNTNTNSNRYEGKVIDSA”, which “soluble on expression in E. coli” value is on record?
Its value is “soluble”.

Which “soluble on expression in E. coli” value does the source give for “TQHIESHTHVVSLEEIPVERNLAQLTGWTEGAPVWRLVRQREIEGEVDILDIDYLIKEIVPELPKHRAEDSIFDYLENDLGLAISYAQKEITVEPLTEMDKQLIGEVEGNHVVVVRSIMNLEDTRCFGYTESRHRLNKFKFVEFARRRKL” here?
Its value is “soluble”.

With “GSSHHHHHHSSGLVPRGSHMRIVFDIGGSVLVPENPDIDFIKEIAYQLTKVSEDHEVAVVVGGGKLARKYIEVAEKFNSSETFKDFIGIQITRANAMLLIAALREKAYPVVVEDFWEAWKAVQLKKIPVMGGTHPGHTTDAVAALLAEFLKADLLVVITNVDGVYTADPKKDPTAKKIKKMKPEELLEIVGKGIEKAGSSSVIDPLAAKIIARSGIKTIVIGKEDAKDLFRVIKGDHNGTTIEP” as the sequence, how does the “soluble on expression in E. coli” value read?
The value was “soluble”.

For “GPGSMQTSQSLHTAPAEKEVEAPPQLPLTDGRCYACRRCRRILSEVQWYATGCVECSATMGVPDRDSLLDFATPHFHNFIGLIAPGQSWVARLIMKSREPTNGIFAETLSDDEPEDEENEIEPYVGDADEEEGPALLDGEDGAAEPVHELAAEAPE”, which “soluble on expression in E. coli” value is on record?
Its value is “soluble”.

For “MGSDKIHHHHHHIEGPGTTENLKEFVTVDGKKDTQSGAFYLTTVGIRSATIFSAIKANFSDFQEVMSKKELMGDSSNSEYNRIQQYYMDSSKNAAIEQALKLAKVPYEMKFKGVYVLAMEDNSSFKGKIEVGDTVTGVDGKSFKSSEELMNYIKAQKVNQKVTVQFIQDGKAKEATGKLIELPTDKKAGIGIGLTDHTEIDSSIPVSIEAGDIGGPSAGLMFTLQTYEQLSHKDLRKGHEIAGTGTMNSQGIVGRIGGIDKKVVTASENGAEIFFAPDDEITSEMKKVEPKIKSNYQEAQEAAKKIGTKMKIVPVKTVQDALNYLEKLK”, which “soluble on expression in E. coli” value is on record?
Its value is “not soluble”.

With “MAHHHHHHMLKSSIVLLRRGKPRPRAGMFPEKYRRVPTLLKPQQGGQQYFNEFLIRSANDALEAQQQGYGSAFRVGGSGAARILADGNATAADGIHDGEISSVHPRLPQADIDGVLQRSRAETIQAELKQLVAQDGFISQRGFNERLWYEQEHHRLRTHGDGVEASPSEVAATAAASSSTAEAVSATGEGRAVPERILGDDYFQSKFGYSLLKGRSPDASAVADNVKAYAQLDLWGEMPMYSRDFVFLYLVSRRRNTYAVAYDYDGKRLLPTYTAGNRGLKGGDRGFRGDGSTDNGHQVTSMYLNDLLPKIREARAASGRPLGRGEKIDLVVRVMGFYNGRQGAVRAVQDRSADFRVRYLEDVTPFPLNGPKMPRGVFR” as the sequence, how does the “soluble on expression in E. coli” value read?
Its value is “not soluble”.

For “MRMRLMLLGGGNALGQALIRLGAEEDIGFLAPRPPEQGWDAASLTTLLDETRPDAVINLAFYHDWFQAEQVEAERLGAQERAVERLAELCQHYEILLVQPSSYRVFDGARATAYSEKDETLPLGLRGQALWRMEQSVRAACPRHVLIRFGWLLDESPNGLLGRFLSRAEQPQPLFLADDRRGNPTPVDDAARVVLSVLKQLDCQAPLWGTYHYGGLEATTTLALGQVILNEARTYRSNLIQEPSAEAHAARPDALDEPQHAVMVCKKILHTFGIKPRAWRAGLPALLDRYYRHV”, which “soluble on expression in E. coli” value is on record?
The value was “not soluble”.

For “MIKRFLEDTTDDGELSKFVKDFSGNASCHPPEAKTWASRPQVPEPRPQAPDLYDDDLEFRPPSRPQSSDNQQYFCAPAPLSPSARPRSPWGKLDPYDSSEDDKEYVGFATLPNQVHRKSVKKGFDFTLMVAGESGLGKSTLVNSLFLTDLYRDRKLLGAEERIMQTVEITKHAVDIEEKGVRLRLTIVDTPGFGDAVNNTECWKPVAEYIDQQFEQYFRDESGLNRKNIQDNRVHCCLYFISPFGHGLRPLDVEFMKALHQRVNIVPILAKADTLTPPEVDHKKRKIREEIEHFGIKIYQFPDCDSDEDEDFKLQDQALKESIPFAVIGSNTVVEARGRRVRGRLYPWGIVEVENPGHCDFVKLRTMLVRTHMQDLKDVTRETHYENYRAQCIQSMTRLVVKERNRNKLTRESGTDFPIPAVPPGTDPETEKLIREKDEELRRMQEMLHKIQKQMKENY”, which “soluble on expression in E. coli” value is on record?
The value was “not soluble”.

For “MRVVIQRVKGAILSVRKENIGENEKELEIISEIKNGLICFLGIHKNDTWEDALYIIRKCLNLRLWNNDNKTWDKNVKDLNYELLIVSQFTLFGNTKKGNKPDFHLAKEPNEALIFYNKIIDEFKKQYNDDKIKIGKFGNYMNIDVTNDGPVTIYIDTHDINLNK”, which “soluble on expression in E. coli” value is on record?
The value was “soluble”.

With “MPKIKRVKKGKKLKPNVMIFCEGETEEAYLRLIKRKYSAVNIKSKLKVKTCRRQGEALVEYAVSCIRSMGKAERDNYDLFYVMYDKDEQTTESIENAVRCAQRHRPEIKTIFSNECFELWLLLHFEEVNRYMTRENLYGRLEKVLHLKDSYRNFKGAEVCKYLEEKVAIAFQNTNKNWLSPLEEMKINENPYTNFPKELCEMLAQKEVDF” as the sequence, how does the “soluble on expression in E. coli” value read?
Its value is “not soluble”.

For “MSLETINNSAKKQPGLYISGQYKPSVSVFSNFSVKETNVPTKQLIALKKDINSVAVGSNATTGISNPGNFTIPYTAEFQDNVANFNGAVGYSFPDSLRIEIEGFHEKFDVKNPGGYTQVKDAYRYFALARDLKDGFFEPKAEDTGVYHTVMKNDGLSILSTMVNVCYDFSVDELPVLPYICAGMGINAIEFFDALHVKFAYQGKLGISYQLFTKVNLFLDGYYHQVIGNQFKNLNVNHVYTLKESPKVTSAVATLDIAYFGGEVGIRFTFEGHHHHHH”, which “soluble on expression in E. coli” value is on record?
The value was “not soluble”.

— the DeepSol protein solubility set
